Measured values: publication PMC10352329

Assays:
[1] = test system: p300 BRP 4A (Homo sapiens); test: MST; details: human octamer H2A type 1-B/E, H2B type 1-J, MST and cryo-EM sample buffers not in the material, MST 10 µM CBP30 where stated
[2] = test system: p300 BRP wild-type (Homo sapiens); test: MST; details: human octamer H2A type 1-B/E, H2B type 1-J, MST and cryo-EM sample buffers not in the material, MST 10 µM CBP30 where stated
[3] = target: human p300BRP (residues 1048–1282), wild type (human) (UniProt Q09472); test: MST; p300BRP fluorescently labeled (His tag Labeling Kit), 2-fold serial dilutions of 180-bp nucleosome; 10 mM HEPES-NaOH pH 7.4, 150 mM NaCl, 0.05% Tween-20; 25 °C; Hill equation, half-saturation concentration (K1/2)
[4] = target: human p300BRP (residues 1048–1282), 4A-substituted mutant (R1133A, K1134A, R1137A, K1140A) (human) (UniProt Q09472); test: MST; as a2, but p300BRP incubated beforehand with 10 μM CBP30 (inhibitor of the bromodomain pocket) for at least 20 min
[5] = target: human p300BRP (residues 1048–1282), wild type (human) (UniProt Q09472); test: as above
[6] = target: human p300BRP (residues 1048–1282), 4A-substituted mutant (R1133A, K1134A, R1137A, K1140A) (human) (UniProt Q09472); test: MST; p300BRP fluorescently labeled (His tag Labeling Kit), 2-fold serial dilutions of 180-bp nucleosome; 10 mM HEPES-NaOH pH 7.4, 150 mM NaCl, 0.05% Tween-20; 25 °C; Hill equation, half-saturation concentration (K1/2)
[7] = target: Histone H4 K12ac/K16ac (Homo sapiens) (UniProt P62805); details: cited from earlier work
[8] = target: Histone H4 K8ac/K12ac (Homo sapiens) (UniProt P62805); details: cited from earlier work
[9] = no CBP30, H3.1, H4 with K12ac/K16ac

human p300BRP (residues 1048–1282), wild type (human), sequence (Q09472 1048-1282): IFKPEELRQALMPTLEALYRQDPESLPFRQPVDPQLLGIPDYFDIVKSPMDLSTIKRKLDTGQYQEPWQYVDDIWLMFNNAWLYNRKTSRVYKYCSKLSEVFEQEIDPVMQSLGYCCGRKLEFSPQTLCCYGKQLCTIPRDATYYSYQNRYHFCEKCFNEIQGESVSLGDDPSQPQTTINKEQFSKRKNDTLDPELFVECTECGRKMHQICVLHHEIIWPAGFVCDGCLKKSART
human p300BRP (residues 1048–1282), 4A-substituted mutant (R1133A, K1134A, R1137A, K1140A) (human), sequence (Q09472 1048-1282 R1133A/K1134A/R1137A/K1140A): as the sequence (Q09472 1048-1282) above, with R86A, K87A, R90A, K93A counted along it

unmodified 180-bp nucleosome showed a K half ([1]; no CBP30, H3.1, H4, unmodified) of 7.3 nM and a K half ([2]; no CBP30, H3.1, H4, unmodified) of 2.2 nM.
With “180-bp unmodified nucleosome (from UniProt P04908 1-130; P68431 1-136; P62805 1-103) (complex)” the K1/2 (half-saturation concentration) [3] was 2.2 nM.
With “180-bp nucleosome having H4K12ac/K16ac (H4acNuc) (from UniProt P04908 1-130; P68431 1-136; P62805 1-103) (complex)” the K1/2 (half-saturation concentration) after incubation with CBP30 [4] was 3.5 nM, the K1/2 (half-saturation concentration) after incubation with CBP30 [5] was 1.2 nM and the K1/2 (half-saturation concentration) [6] was 1.8 nM. The K1/2 (half-saturation concentration) [3] was 0.35 nM.
H4acNuc (180-bp, H4K12ac/K16ac) showed a K half ([1]; H3.1, H4 with K12ac/K16ac) of 3.5 nM, a K half [1, 9] of 1.8 nM and a K half ([2]; H3.1, H4 with K12ac/K16ac) of 1.2 nM. The K half [2, 9] was 0.35 nM.
For “p300/CBP bromodomain bromodomain (from UniProt Q09472)”, the Kd [7] is listed as 25 µM and the Kd [8] is listed as 90 µM.
